Several values for one entry are separate records, joined by “and”; a condition that tells them apart may be missing. Equal entries are not always repeated.
Biological target: ECM (extracellular matrix)
Assay: ECL assay on ECM (Matrigel)-coated plate, MRA reference of the same plate or date

Substance: MRA (antibody)
- ECL reaction (MRA): 448 and 564
